Patent EP4631523A2

Legend:
interleukin 6 (IL-6) [1] = molecular target: interleukin 6 (IL-6) (UniProt P05231); test: IL-6 binding ELISA; 25±2°C, 1 month
interleukin 6 (IL-6) [2] = molecular target: interleukin 6 (IL-6) (UniProt P05231); test: IL-6 binding ELISA; 5±3°C, 3 months
interleukin 6 (IL-6) [3] = molecular target: interleukin 6 (IL-6) (UniProt P05231); test: IL-6 binding ELISA, relative to a Phase I DS lot; 20 mg/mL formulation without methionine, 12 months at 2 to 8°C
interleukin 6 (IL-6) [4] = molecular target: interleukin 6 (IL-6) (UniProt P05231); test: IL-6 binding ELISA; 5±3°C, 3 months; remark: listed apart in the source
interleukin 6 (IL-6) [5] = molecular target: interleukin 6 (IL-6) (UniProt P05231); test: IL-6 binding ELISA; 40±2°C, 1 month
interleukin 6 (IL-6) [6] = molecular target: interleukin 6 (IL-6) (UniProt P05231); test: IL-6 binding ELISA; 5±3°C, 1 month
interleukin 6 (IL-6) [7] = molecular target: interleukin 6 (IL-6) (UniProt P05231); test: IL-6 binding ELISA; 5±3°C, 0 months
interleukin 6 (IL-6) [8] = molecular target: interleukin 6 (IL-6) (UniProt P05231); test: IL-6 binding ELISA; 5±3°C, 1 month; remark: listed apart in the source
interleukin 6 (IL-6) [9] = molecular target: interleukin 6 (IL-6) (UniProt P05231); test: IL-6 binding ELISA; 5±3°C, 1 month; remark: listed apart in the source
interleukin 6 (IL-6) [10] = molecular target: interleukin 6 (IL-6) (UniProt P05231); test: IL-6 binding ELISA; 40±2°C, 3 months
interleukin 6 (IL-6) [11] = molecular target: interleukin 6 (IL-6) (UniProt P05231); test: IL-6 binding ELISA; 25±2°C, 0 months
interleukin 6 (IL-6) [12] = molecular target: interleukin 6 (IL-6) (UniProt P05231); test: IL-6 binding ELISA; 25±2°C, 3 months
interleukin 6 (IL-6) [13] = molecular target: interleukin 6 (IL-6) (UniProt P05231); test: IL-6 binding ELISA; 5±3°C, 9 months
interleukin 6 (IL-6) [14] = molecular target: interleukin 6 (IL-6) (UniProt P05231); test: IL-6 binding ELISA, relative to a Phase I DS lot; 120 mg/mL formulation without methionine, 9 months at 2 to 8°C
interleukin 6 (IL-6) [15] = molecular target: interleukin 6 (IL-6) (UniProt P05231); test: IL-6 binding ELISA; 40±2°C, 3 months; remark: listed apart in the source
interleukin 6 (IL-6) [16] = molecular target: interleukin 6 (IL-6) (UniProt P05231); test: IL-6 binding ELISA; 25±2°C, 3 months; remark: listed apart in the source
interleukin 6 (IL-6) [17] = molecular target: interleukin 6 (IL-6) (UniProt P05231); test: IL-6 binding ELISA; 40±2°C, 1 month; remark: listed apart in the source
interleukin 6 (IL-6) [18] = molecular target: interleukin 6 (IL-6) (UniProt P05231); test: IL-6 binding ELISA; 40±2°C, 0 months
interleukin 6 (IL-6) [19] = molecular target: interleukin 6 (IL-6) (UniProt P05231); test: IL-6 binding ELISA; 5±3°C, 3 months; remark: listed apart in the source
interleukin 6 (IL-6) [20] = molecular target: interleukin 6 (IL-6) (UniProt P05231); test: IL-6 binding ELISA; 40±2°C, 3 months; remark: listed apart in the source
interleukin 6 (IL-6) [21] = molecular target: interleukin 6 (IL-6) (UniProt P05231); test: IL-6 binding ELISA; 25±2°C, 1 month; remark: listed apart in the source
interleukin 6 (IL-6) [22] = molecular target: interleukin 6 (IL-6) (UniProt P05231); test: IL-6 binding ELISA; 40±2°C, 3 months; remark: listed apart in the source
interleukin 6 (IL-6) [23] = molecular target: interleukin 6 (IL-6) (UniProt P05231); test: IL-6 binding ELISA; 40±2°C, 0 months; remark: listed apart in the source
interleukin 6 (IL-6) [24] = molecular target: interleukin 6 (IL-6) (UniProt P05231); test: IL-6 binding ELISA; 25±2°C, 1 month; remark: listed apart in the source
interleukin 6 (IL-6) [25] = molecular target: interleukin 6 (IL-6) (UniProt P05231); test: IL-6 binding ELISA; 5±3°C, 12 months
interleukin 6 (IL-6) [26] = molecular target: interleukin 6 (IL-6) (UniProt P05231); test: IL-6 binding ELISA; 40±2°C, 1 month; remark: listed apart in the source
interleukin 6 (IL-6) [27] = molecular target: interleukin 6 (IL-6) (UniProt P05231); test: IL-6 binding ELISA; 25±2°C, 0 months; remark: listed apart in the source
interleukin 6 (IL-6) [28] = molecular target: interleukin 6 (IL-6) (UniProt P05231); test: IL-6 binding ELISA; 5±3°C, 3 months; remark: listed apart in the source
interleukin 6 (IL-6) [29] = molecular target: interleukin 6 (IL-6) (UniProt P05231); test: IL-6 binding ELISA; 25±2°C, 6 months
interleukin 6 (IL-6) [30] = molecular target: interleukin 6 (IL-6) (UniProt P05231); test: IL-6 binding ELISA; 5±3°C, 12 months; remark: listed apart in the source
interleukin 6 (IL-6) [31] = molecular target: interleukin 6 (IL-6) (UniProt P05231); test: IL-6 binding ELISA; 25±2°C, 3 months; remark: listed apart in the source

Sequence of UniProt P05231 (P05231 30-212 limits assumed): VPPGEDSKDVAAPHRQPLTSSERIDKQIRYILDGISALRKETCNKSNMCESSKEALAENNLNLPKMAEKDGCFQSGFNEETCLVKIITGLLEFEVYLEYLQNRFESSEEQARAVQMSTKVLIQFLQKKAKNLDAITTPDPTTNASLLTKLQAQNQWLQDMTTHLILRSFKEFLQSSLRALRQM

B1: COR-001 antibody (antibody, human IgG1, kappa, V domains shown)
VH: EVQLVESGGGLVQPGGSLRLSCAASGFTISSNYMIWVRQAPGKGLEWVSDLYYYAGDTYYADSVKGRFTMSRDISKNTVYLQMNSLRAEDTAVYYCARWADDHPPWIDLWGRGTLVTVSS
VL: DIQMTQSPSTLSASVGDRVTITCRASQGISSWLAWYQQKPGKAPKVLIYKASTLESGVPSRFSGSGSGTEFTLTISSLQPDDFATYYCQQSWLGGSFGQGTKLEIKR
Question: What does the source list for B1?
Answer: IL-6 binding ELISA (% of Reference Standard) (interleukin 6 (IL-6) [1]): 96%; IL-6 binding ELISA (% of Reference Standard) (interleukin 6 (IL-6) [2]): 85%; IL-6 binding ELISA (% of assay control) (interleukin 6 (IL-6) [3]): 84%; IL-6 binding ELISA (% of Reference Standard) (interleukin 6 (IL-6) [4]): 96%; IL-6 binding ELISA (% of Reference Standard) (interleukin 6 (IL-6) [5]): 89%; IL-6 binding ELISA (% of Reference Standard) (interleukin 6 (IL-6) [6]): 86%; IL-6 binding ELISA (% of Reference Standard) (interleukin 6 (IL-6) [7]): 96%; IL-6 binding ELISA (% of Reference Standard) (interleukin 6 (IL-6) [8]): 98%; IL-6 binding ELISA (% of Reference Standard) (interleukin 6 (IL-6) [9]): 94%; IL-6 binding ELISA (% of Reference Standard) (interleukin 6 (IL-6) [10]): 86%; IL-6 binding ELISA (% of Reference Standard) (interleukin 6 (IL-6) [11]): 94%; IL-6 binding ELISA (% of Reference Standard) (interleukin 6 (IL-6) [12]): 97%; IL-6 binding ELISA (% of Reference Standard) (interleukin 6 (IL-6) [13]): 85%; IL-6 binding ELISA (% of assay control) (interleukin 6 (IL-6) [14]): 79%; IL-6 binding ELISA (% of Reference Standard) (interleukin 6 (IL-6) [15]): 99%; IL-6 binding ELISA (% of Reference Standard) (interleukin 6 (IL-6) [16]): 84%; IL-6 binding ELISA (% of Reference Standard) (interleukin 6 (IL-6) [17]): 95%; IL-6 binding ELISA (% of Reference Standard) (interleukin 6 (IL-6) [18]): 91%; IL-6 binding ELISA (% of Reference Standard) (interleukin 6 (IL-6) [19]): 93%; IL-6 binding ELISA (% of Reference Standard) (interleukin 6 (IL-6) [20]): 94%; IL-6 binding ELISA (% of Reference Standard) (interleukin 6 (IL-6) [21]): 110%; IL-6 binding ELISA (% of Reference Standard) (interleukin 6 (IL-6) [22]): 97%; IL-6 binding ELISA (% of Reference Standard) (interleukin 6 (IL-6) [23]): 97%; IL-6 binding ELISA (% of Reference Standard) (interleukin 6 (IL-6) [24]): 98%; IL-6 binding ELISA (% of Reference Standard) (interleukin 6 (IL-6) [25]): 98%; IL-6 binding ELISA (% of Reference Standard) (interleukin 6 (IL-6) [26]): 92%; IL-6 binding ELISA (% of Reference Standard) (interleukin 6 (IL-6) [27]): 97%; IL-6 binding ELISA (% of Reference Standard) (interleukin 6 (IL-6) [28]): 92%; IL-6 binding ELISA (% of Reference Standard) (interleukin 6 (IL-6) [29]): 88%; IL-6 binding ELISA (% of Reference Standard) (interleukin 6 (IL-6) [30]): 95%; IL-6 binding ELISA (% of Reference Standard) (interleukin 6 (IL-6) [31]): 90%
